# Source: patent publication US20260103529A1, “Amino Acid Sequences Directed Against the Melanocortin 4 Receptor and Polypeptides Comprising the Same for the Treatment of MC4R-Related Diseases and Disorders” (Confo Therapeutics N.V., priority 2022, published 2026)
# B1: pN162: agonistic anti-MC4R VHH, SEQ ID NO: 184; parental clone for potency maturation (protein)
# VHH: QVQLVESGGGLVQPGGSLRLSCAASGSAFSLNVMGWYRQTPGNQRALVAEITKDGSTNYADSAKGRFTISRDNAKNTVHLQMDSLKPEDTAVYYCKARTGRIVRPLDYWGQGTQVTVSS
# modifications: pN0162
# Legend:
# DIO mice = assay: Diet-induced obese (DIO) mouse study, acute setting, ICV administration; type: in vivo
# Description: The mouse studies described in Examples 2 and 3 were performed at a fully AAALAC accredited unit (Gubra, Denmark), and all animal experiments were conducted in accordance with the CRO's bioethical guidelines, which are fully compliant to internationally accepted principles for the care and use of laboratory animals. All experiments were licensed by the Danish Animal Experimentation Council. This animal model is based on male C57BI/6J mice that are fed for a minimum of 18 weeks a 60% high fat diet that result in rapid weight gain. The mice were obtained from commercial vendors in Europe and United States transferred to Gubra's animal unit. The animal room environment is controlled (targeted ranges: temperature 21±2° C.; relative humidity 50±10%). The animals are maintained on a reversed 12 h light/dark cycle and have access to plenty of bedding material, shelters and chewing sticks. Animals were dosed just before lights went off.
# Male DIO mice (5 weeks of age at time of arrival and HF diet induction, 46 weeks of age at study start, n=50) had ad libitum access to 60% high fat diet (D12492, Research diets) and water. The DIO mice were acclimatized to an automated real-time food intake monitoring system (MoNI system) individually housed in the system for 14 days prior to study start. The animals went through ICV cannulation on study day −6/−5 and on study day−1, animals were randomized into 5 treatment groups (n=8 per group) based on body weight (PM, day−2).
# human wild type MC1R = target: T1, human wild type MC1R (Homo sapiens, UniProt Q01726); assay: cAMP GloSensor assay, MC1R; type: cell-based
# T1 construct: expressed in transfected cells; host or cells: HEK293 / HEK 293T, pcDNA3.1(+)
# human MC5R = target: T2, human MC5R (Homo sapiens, UniProt P33032); assay: Flow cytometry binding to Flag-tagged receptor in HEK293T cells, MC5R; conditions: 1 μM
# T2 construct: Flag; expressed in transfected cells; host or cells: HEK293T
# Description: To confirm MC4R activation, dose-dependent nanobody-induced cAMP signaling was assessed (Lance Ultra HTRF). […] Binding of pN162 to the human melanocortin receptor subtypes MC1R, MC2R, MC3R, MC4R or MC5R transiently expressed as Flag-tagged receptors in HEK293T cells was assessed by flow cytometry.
# [1] = tested on: moderately pigmented normal human epidermal melanocytes (NHEM-MP); assay: In vitro pigmentation assay, melanin synthesis, 2D NHEM moderately pigmented; type: cell-based; conditions: 10 days
# Description: Highly and moderately pigmented melanocytes were seeded in 24-well plates and cultured in culture medium for 24 hours. The medium was then replaced by culture medium containing or not (control) the test compounds or the reference compounds (L-tyrosine at 1 mM, IBMX at 100 and 200 μM and NDP-MSH at 10 μM). The cells were then incubated for 10 days with treatment renewal at day 3 and day 7. All experimental conditions were performed in n=3. At the end of the incubation time, the culture supernatants were removed, and melanin was extracted by cell lysis using a 0.5 N NaOH solution. The optical density (OD) of each experimental point was measured at 405 nm and melanin quantity was determined according to melanin standard curve (standard curve ranging from 0.39 to 100 μg/ml). The results were expressed in μg/ml of melanin. […] NHEM-HP response to L-tyrosine and NDP-MSH was stronger than in NHEM-MP while IBMX induced a stronger response in the NHEM-MP.
# [2] = pN162 0.5 and 5 nmol ICV on day 0 and day 2, study day 4
# T1 sequence (Q01726 whole entry): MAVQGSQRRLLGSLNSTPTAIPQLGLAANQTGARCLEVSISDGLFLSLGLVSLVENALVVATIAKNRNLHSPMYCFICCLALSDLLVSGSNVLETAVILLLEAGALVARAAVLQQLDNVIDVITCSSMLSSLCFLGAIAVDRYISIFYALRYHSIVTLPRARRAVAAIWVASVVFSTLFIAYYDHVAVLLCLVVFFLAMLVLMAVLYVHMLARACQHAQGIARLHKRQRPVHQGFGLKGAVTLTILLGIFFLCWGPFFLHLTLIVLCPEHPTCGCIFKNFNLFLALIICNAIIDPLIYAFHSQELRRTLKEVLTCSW
# T2 sequence (P33032 whole entry): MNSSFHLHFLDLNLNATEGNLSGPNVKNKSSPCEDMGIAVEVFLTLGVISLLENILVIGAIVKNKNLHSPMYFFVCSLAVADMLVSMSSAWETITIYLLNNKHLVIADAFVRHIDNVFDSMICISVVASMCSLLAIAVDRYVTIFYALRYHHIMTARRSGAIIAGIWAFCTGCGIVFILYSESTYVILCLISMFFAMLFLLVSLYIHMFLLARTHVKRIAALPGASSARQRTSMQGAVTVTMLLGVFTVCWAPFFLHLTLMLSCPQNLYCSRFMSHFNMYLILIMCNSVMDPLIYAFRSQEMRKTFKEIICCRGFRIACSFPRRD
molecule,measurement,setting,value
B1,cumulative food intake after first dose,DIO mice; pN162 0.5 and 5 nmol ICV,reduced by pN162 in a dose-dependent manner
same,cumulative food intake compared to vehicle,DIO mice; [2],reduced
same,relative body weight compared to vehicle,DIO mice; [2],reduced
same,"detectable cAMP signaling, MC1R",human wild type MC1R; GloSensor head-to-head receptor subtype comparison,only induced detectable signaling on MC4R
same,cAMP potency (EC50) MC1R,"human wild type MC1R; GloSensor, average EC50, human MC1R",No effect
same,binding to MC5R by flow cytometry,human MC5R,No binding could be detected
same,modulation of melanin synthesis,[1],did not modulate
